From the supplement of paper PMC10598134
± gives the standard deviation.

Experiment: collision cross section of modified peptide (TIMS, N2, iRT-aligned); higher = larger / more extended gas-phase ion
In short: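 On a timsTOF Pro/HT (dda-PASEF, nitrogen, ~2.4 mbar), synthetic peptide pools were analysed after a 120-min nanoflow C18 separation at 60 °C and identified in MaxQuant. Three reference ions served for 1/K0 calibration, with run-wise alignment to the median iRT peptide deviation. Collision cross section comes from the Mason-Schamp equation, using the most abundant feature per charge state averaged over 1–3 technical replicates.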

[1] = charge state: 2, modification: Malonyl
[2] = charge state: 2, modification: HexNAc (ST)
[3] = charge state: 2, modification: Succinyl
[4] = charge state: 2, modification: Glutarylation
[5] = charge state: 3, modification: Glutarylation
[6] = charge state: 3, modification: Methyl (R)
[7] = charge state: 2, modification: Crotonyl
[8] = charge state: 3, modification: HexNAc (ST)
[9] = charge state: 3, modification: Dimethyl (K)
[10] = charge state: 2, modification: Formyl
[11] = charge state: 2, modification: GlyGly (K)
[12] = charge state: 3, modification: GlyGly (K)
[13] = charge state: 2, modification: Nitro (Y)
[14] = charge state: 3, modification: Succinyl
[15] = charge state: 3, modification: Formyl
[16] = charge state: 2, modification: Propionyl
[17] = charge state: 2, modification: Biotin
[18] = charge state: 2, modification: Acetyl (K)
[19] = charge state: 2, modification: Trimethyl (K)
[20] = charge state: 3, modification: Trimethyl (K)
[21] = charge state: 2, modification: Methyl (K)
[22] = charge state: 3, modification: Methyl (K)
[23] = charge state: 2, modification: Dimethyl (K)
[24] = charge state: 3, modification: Acetyl (K)
[25] = charge state: 2, modification: hydroxyisobutyryl

ALASIDSKLNQAK [_ALASIDSK(Malonyl)LNQAK_]
collision cross section [1]: 399.65 ± 0.028 Å²

VMVAPISGSVTTGTK [_VMVAPIS(HexNAc (ST))GSVTTGTK_]
collision cross section [2]: 423.51 ± 0.62 Å²

VGEFSGANKEK [_VGEFSGANK(Malonyl)EK_]
collision cross section [1]: 354.12 ± 1.7 Å²

ASNAAVKLAESK [_ASNAAVK(Succinyl)LAESK_]
collision cross section [3]: 372.84 ± 0.87 Å²

SGNLTEDDKHNNAK [_SGNLTEDDK(Gluratylation)HNNAK_]
collision cross section [4]: 428.34 ± 1.5 Å²
collision cross section [5]: 486.64 ± 2.8 Å²

VTPHPSPRGSPLPTPK [_VTPHPSPR(Methyl (R))GSPLPTPK_]
collision cross section [6]: 512.12 ± 9.6 Å²

PGLKGEQGEPGAPGIR [_PGLKGEQGEPGAP(Hydroxyproline)GIR_]
collision cross section (charge state: 2, modification: Hydroxyproline): 410.74 ± 0.55 Å²
collision cross section (charge state: 3, modification: Hydroxyproline): 508.4 ± 1.3 Å²

DYSSGFGGKYGVQADR [_DYSSGFGGK(Crotonyl)YGVQADR_]
collision cross section [7]: 437.04 ± 0.54 Å²

DHSKPISNPSDNK [_DHS(HexNAc (ST))KPISNPSDNK_]
collision cross section [2]: 406.95 ± 0.13 Å²
collision cross section [8]: 479.5 ± 0.17 Å²

SGNLTEDDKHNNAK [_SGNLTEDDK(Dimethyl (K))HNNAK_]
collision cross section [9]: 479.84 ± 1.3 Å²

SDDESSQKDIK [_SDDESSQK(Formyl)DIK_]
collision cross section [10]: 368.14 ± 1.1 Å²

VSPASSVDSNIPSSQGYKK [_VSPASSVDSNIPSSQGYK(Dimethyl (K))K_]
collision cross section [9]: 536.37 ± 0.42 Å²

LDEKENLSAK [_LDEK(Formyl)ENLSAK_]
collision cross section [10]: 361.57 ± 0.88 Å²

ANEKTESSSAQQVAVSR [_ANEK(GlyGly (K))TESSSAQQVAVSR_]
collision cross section [11]: 467.32 ± 0.84 Å²
collision cross section [12]: 498.93 ± 1.1 Å²

PSVGSQSNQAGQGKR [_PSVGSQSNQAGQGK(Crotonyl)R_]
collision cross section [7]: 420.02 ± 0.41 Å²
collision cross section (charge state: 3, modification: Crotonyl): 468.33 ± 1.6 Å²

SYISSQTNDTHK [_SYIS(HexNAc (ST))SQTNDTHK_]
collision cross section [8]: 474.05 ± 0.17 Å²

FNALFAQGNYSEAAK [_FNALFAQGNY(Nitro (Y))SEAAK_]
collision cross section [13]: 433.45 ± 0.55 Å²

ITESVAETAQTIKK [_ITESVAETAQTIK(Succinyl)K_]
collision cross section [3]: 424.69 ± 1.1 Å²
collision cross section [14]: 512.63 ± 2.6 Å²

DSINFLDHINGKK [_DSINFLDHINGK(Formyl)K_]
collision cross section [15]: 468.04 Å²

SDDESSQKDIK [_SDDESSQK(Gluratylation)DIK_]
collision cross section [4]: 382.21 ± 1.1 Å²

LEEVTGKLQVAR [_LEEVTGK(Propionyl)LQVAR_]
collision cross section [16]: 394.4 ± 1.3 Å²

FSAYIKNSNPALNDNLEK [_FSAYIK(Succinyl)NSNPALNDNLEK_]
collision cross section [3]: 492.09 ± 3.4 Å²
collision cross section [14]: 527.54 ± 2 Å²

DKALPLEAEVAPVK [_DK(Biotin)ALPLEAEVAPVK_]
collision cross section [17]: 435.06 Å²

LAEEENKAK [_LAEEENK(Formyl)AK_]
collision cross section [10]: 342.64 ± 1.5 Å²

SGKFTQQDIDEAK [_SGK(Formyl)FTQQDIDEAK_]
collision cross section [10]: 408.45 ± 0.19 Å²

DKALPLEAEVAPVK [_DK(Acetyl (K))ALPLEAEVAPVK_]
collision cross section [18]: 407.82 ± 5.1 Å²

SFDEVEGVFGRGGGR [_SFDEVEGVFGR(Methyl (R))GGGR_]
collision cross section (charge state: 2, modification: Methyl (R)): 429.58 ± 1.6 Å²
collision cross section [6]: 513.29 ± 1.2 Å²

ALLQAKASGK [_ALLQAK(GlyGly (K))ASGK_]
collision cross section [11]: 355.61 ± 0.57 Å²

VLDSGAPIKIPVGPETLGR [_VLDSGAPIK(Gluratylation)IPVGPETLGR_]
collision cross section [4]: 465.83 ± 1.5 Å²
collision cross section [5]: 505.05 ± 1 Å²

VDIDAPDVSIEGPDAKLK [_VDIDAPDVSIEGPDAK(Trimethyl (K))LK_]
collision cross section [19]: 465.65 ± 1.2 Å²
collision cross section [20]: 534.07 ± 1.8 Å²

SGNLTEDDKHNNAK [_SGNLTEDDK(Formyl)HNNAK_]
collision cross section [10]: 415.1 ± 1.8 Å²
collision cross section [15]: 466.8 ± 1.3 Å²

DHLSDKESK [_DHLSDK(GlyGly (K))ESK_]
collision cross section [11]: 353.15 ± 0.53 Å²
collision cross section [12]: 411.26 Å²

TQAYQDQKPGTSGLR [_TQAYQDQK(Dimethyl (K))PGTSGLR_]
collision cross section [9]: 464.17 ± 1.6 Å²

LDHLAEKFR [_LDHLAEK(Methyl (K))FR_]
collision cross section [21]: 368.51 ± 0.5 Å²
collision cross section [22]: 450.7 ± 4.8 Å²

LEQVEKELLR [_LEQVEK(Acetyl (K))ELLR_]
collision cross section [18]: 385.81 ± 0.48 Å²

TSAVSSQANSQPPVQVSVK [_TSAVSSQANSQPPVQVS(HexNAc (ST))VK_]
collision cross section [2]: 471.02 Å²

IDLPAENSNSETIIITGKR [_IDLPAENSNSETIIITGK(GlyGly (K))R_]
collision cross section [11]: 493.9 ± 1.8 Å²
collision cross section [12]: 582.79 ± 0.38 Å²

SGFGKFER [_SGFGK(Formyl)FER_]
collision cross section [10]: 326.95 ± 0.99 Å²

TLDEILQEKK [_TLDEILQEK(Dimethyl (K))K_]
collision cross section [23]: 379.42 ± 0.37 Å²
collision cross section [9]: 430.63 ± 2 Å²

VFIGNLNTLVVKK [_VFIGNLNTLVVK(GlyGly (K))K_]
collision cross section [11]: 445.95 ± 1.4 Å²
collision cross section [12]: 487.11 ± 2 Å²

VDIDVPDVNIEGPDAKLK [_VDIDVPDVNIEGPDAK(Malonyl)LK_]
collision cross section [1]: 474.57 Å²

YILIPASQQPK [_Y(Nitro (Y))ILIPASQQPK_]
collision cross section [13]: 382.12 ± 0.17 Å²

ILDLKTGTVK [_ILDLK(Dimethyl (K))TGTVK_]
collision cross section [23]: 355.49 ± 0.51 Å²

LQEKVESAQSEQK [_LQEK(Malonyl)VESAQSEQK_]
collision cross section [1]: 413.7 ± 1.6 Å²
collision cross section (charge state: 3, modification: Malonyl): 504.23 ± 2.2 Å²

VSPASSVDSNIPSSQGYKK [_VSPASSVDSNIPSSQGYK(Succinyl)K_]
collision cross section [3]: 467.79 ± 1.1 Å²
collision cross section [14]: 548.84 ± 1.1 Å²

ITESVAETAQTIKK [_ITESVAETAQTIK(Formyl)K_]
collision cross section [10]: 415.52 ± 0.56 Å²
collision cross section [15]: 507.5 ± 1.5 Å²

TLQKQSVVYGGK [_TLQK(Dimethyl (K))QSVVYGGK_]
collision cross section [23]: 397.97 ± 0.88 Å²
collision cross section [9]: 459.07 ± 1.6 Å²

SGFGKFER [_SGFGK(Trimethyl (K))FER_]
collision cross section [19]: 339.14 Å²

LDLSSLAYSGK [_LDLSSLAY(Nitro (Y))SGK_]
collision cross section [13]: 385.74 ± 0.17 Å²

LLEQKTQESQK [_LLEQK(Crotonyl)TQESQK_]
collision cross section [7]: 398.38 ± 1.1 Å²

DVNAAIAAIKTK [_DVNAAIAAIK(Biotin)TK_]
collision cross section [17]: 423.85 Å²

DFDTALKHYDK [_DFDTALK(Acetyl (K))HYDK_]
collision cross section [18]: 401.2 ± 2 Å²
collision cross section [24]: 463.37 ± 2.2 Å²

FEGAIYR [_FEGAIY(Nitro (Y))R_]
collision cross section [13]: 321.92 ± 0.71 Å²

LTSLNVKYNNDK [_LTSLNVK(Propionyl)YNNDK_]
collision cross section [16]: 410.81 ± 0.38 Å²

GTITVSAQELKDNR [_GTITVSAQELK(Gluratylation)DNR_]
collision cross section [4]: 422.99 ± 0.48 Å²
collision cross section [5]: 483.37 ± 1.7 Å²

GAEKTEVAEPR [_GAEK(hydroxyisobutyryl)TEVAEPR_]
collision cross section [25]: 376.1 ± 9 Å²

SKHLQEQLNELK [_SK(Trimethyl (K))HLQEQLNELK_]
collision cross section [19]: 417.87 Å²
collision cross section [20]: 506.13 ± 1.6 Å²

VPTTEKPTVTVNFR [_VPTTEK(Formyl)PTVTVNFR_]
collision cross section [10]: 425.05 ± 5 Å²
collision cross section [15]: 502.93 ± 1.3 Å²

LPEYPQVDDLLLR [_LPEY(Nitro (Y))PQVDDLLLR_]
collision cross section [13]: 424.61 ± 1.1 Å²

ISALQGKLSK [_ISALQGK(Formyl)LSK_]
collision cross section [10]: 348.45 ± 1 Å²

TLDEILQEKK [_TLDEILQEK(GlyGly (K))K_]
collision cross section [11]: 390.82 ± 2.5 Å²
collision cross section [12]: 438.72 ± 1.6 Å²

FLQEFYQDDELGKK [_FLQEFYQDDELGK(Dimethyl (K))K_]
collision cross section [23]: 456.43 ± 1.8 Å²
collision cross section [9]: 499.62 ± 0.75 Å²

IVSGKDYNVTANSK [_IVSGK(Methyl (K))DYNVTANSK_]
collision cross section [21]: 411.95 ± 2 Å²
collision cross section [22]: 471.19 ± 3.6 Å²

SPDEAYAIAKK [_SPDEAYAIAK(hydroxyisobutyryl)K_]
collision cross section [25]: 377.18 ± 1.4 Å²
collision cross section (charge state: 3, modification: hydroxyisobutyryl): 453.4 ± 3.9 Å²

ITGKNQVTATK [_ITGK(Malonyl)NQVTATK_]
collision cross section [1]: 362.15 ± 0.018 Å²

GTITVSAQELKDNR [_GTITVSAQELK(Malonyl)DNR_]
collision cross section [1]: 419.75 ± 0.051 Å²

GTISAPGKVVTAAAQAK [_GTISAPGK(Gluratylation)VVTAAAQAK_]
collision cross section [4]: 445.81 ± 0.95 Å²
collision cross section [5]: 526.52 ± 1.1 Å²

IDLPAENSNSETIIITGKR [_IDLPAENSNSETIIITGK(Acetyl (K))R_]
collision cross section [24]: 569.63 Å²

SLFFGGKGAPLQR [_SLFFGGK(Biotin)GAPLQR_]
collision cross section [17]: 419.13 Å²

VGVEVPDVNIEGPEGKLK [_VGVEVPDVNIEGPEGK(Dimethyl (K))LK_]
collision cross section [23]: 456.47 ± 2.5 Å²
collision cross section [9]: 540.33 ± 0.77 Å²
